Measurements published in patent US20080260858A1, “Universal Procoagulant” (The Board of Trustees of the University of Illnois, priority 2005, published 2008).

Assays:
VIIa = biological target: T1, VIIa (Homo sapiens, UniProt P08709); test: Kd for VIIa binding to TF (X activation rate as readout); settings: purified proteins; membTF in PCPS liposomes; sTF-5AA-(His)6 plus NiPCPS liposomes; read-out: VIIa binding Kd
T1 construct: VIIa or factor VIIa means coagulation factor VIIa (active enzyme); purchased American Diagnostica
T1 sequence (P08709 61-212): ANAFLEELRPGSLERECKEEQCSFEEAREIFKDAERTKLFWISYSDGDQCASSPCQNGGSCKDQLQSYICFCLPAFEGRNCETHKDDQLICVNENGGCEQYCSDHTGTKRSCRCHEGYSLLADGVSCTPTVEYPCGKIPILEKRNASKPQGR
T1 sequence (P08709 213-466): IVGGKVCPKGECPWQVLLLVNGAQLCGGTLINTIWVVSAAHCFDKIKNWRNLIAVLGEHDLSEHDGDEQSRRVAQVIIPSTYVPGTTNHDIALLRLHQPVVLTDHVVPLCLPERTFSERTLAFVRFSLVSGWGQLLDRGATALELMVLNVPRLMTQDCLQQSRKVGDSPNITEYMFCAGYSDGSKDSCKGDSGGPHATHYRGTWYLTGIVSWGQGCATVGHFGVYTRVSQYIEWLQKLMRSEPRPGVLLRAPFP
Experimental: When VIIa binds to TF, its rate of X activation increases dramatically, so this can be used as a convenient readout for TF:VIIa complex formation. […] Therefore, when the isolated TF ectodomain was attached to the membrane surface via interaction with metal-chelating lipids, its VIIa binding ability was indistinguishable from membTF that spanned the lipid bilayer.
Measurement of the Kd for VIIa binding to TF—The binding affinity of VIIa for various forms of TF was measured using the TF-dependent increase in the rate of X activation as the readout for TF:VIIa complex formation. Activation of X by the TF:VIIa complex was measured by adapting the continuous chromogenic assay of Fiore et al.. Reaction mixtures containing Vila and either rTF/PCPS or sTF+SUVs were prepared in HBSAC. Reactions were initiated by adding a mixture of X and the chromogenic substrate, S-2222, in a flat bottom, 96-well plate. Change in A405 was monitored at ambient temperature in a VERSAmax microplate reader (Molecular Devices), sampling every 15 sec for 20 min. Initial rates of X activation were determined by fitting a second-order polynomial to the A405 data as described. The quadratic ligand binding equation was fit to the rate data as described to derive apparent Kd values for the binding of VIIa to TF. For experiments using relipidated rTF, typical reaction mixtures containing 0.25 μM VIIa and 20 nM X in HBSAC were incubated with increasing concentrations of rTF/PCPS.

X activation by VIIa = biological target: T2, X activation by VIIa (Homo sapiens, UniProt P08709); test: Factor X activation using liposomes; assay type: biochemical; settings: 500 pM VIIa, 4 pM TF, 50 μM total lipid; liposomes
T2 construct: VIIa or factor VIIa means coagulation factor VIIa (active enzyme); purchased American Diagnostica
Experimental: A stringent test of TF:VIIa function is its ability to support the activation of its natural protein substrate, X. This requires that TF be incorporated into a suitable phospholipid membrane (i.e., one containing negatively charged phospholipids). […] The ability of various forms of TF to support the activation of X was compared under equivalent concentrations of enzyme (500 pM VIIa), cofactor (4 pM TF) and liposomes (50 μM total lipid).
Factor X activation using liposomes. […] At varying times, 20 μl aliquots were removed into a 96-well plate containing 100 μl Stop Buffer 1 (40 mM Mes-NaOH pH 5.8, 12 mM EDTA, 50 mM NaCl, 0.25% Triton X-100, 0.1% NaN3, 0.012% Antifoam C) at 4° C. After warming the stopped reactions to room temperature, Xa was detected by adding 60 μl of 1.5 mM Spectrozyme Xa in HBSAC plus 0.6 M Tricine-NaOH, pH 8.4 and quantifying change in A405. Amounts of Xa generated were determined by comparison to a standard curve with purified Xa.

VII = biological target: T3, VII (Homo sapiens, UniProt P08709); test: Factor VII autoactivation; assay type: biochemical; settings: 15 nM VII and TF; 37° C.; liposomes
T3 construct: Purified plasma-derived VII, X and factor Xa (Xa) were from Enzyme Research Laboratories; purchased Enzyme Research Laboratories; host or cells: plasma
Experimental: An additional function of TF is to promote the autoactivation of VII in a reaction that is dependent on TF surface density.
Factor VII autoactivation. Rates of VII autoactivation were measured essentially as described. Equimolar concentrations of VII and TF (15 nM each) were incubated in HBSAC at 37° C. […] A 20 μl aliquot of 5 mM Chromozym t-PA substrate was added and the change in A405 was monitored at ambient temperature. Two-dimensional second-order rate constants (k2D) were determined as described.

T3 sequence (P08709 61-466, one chain of several): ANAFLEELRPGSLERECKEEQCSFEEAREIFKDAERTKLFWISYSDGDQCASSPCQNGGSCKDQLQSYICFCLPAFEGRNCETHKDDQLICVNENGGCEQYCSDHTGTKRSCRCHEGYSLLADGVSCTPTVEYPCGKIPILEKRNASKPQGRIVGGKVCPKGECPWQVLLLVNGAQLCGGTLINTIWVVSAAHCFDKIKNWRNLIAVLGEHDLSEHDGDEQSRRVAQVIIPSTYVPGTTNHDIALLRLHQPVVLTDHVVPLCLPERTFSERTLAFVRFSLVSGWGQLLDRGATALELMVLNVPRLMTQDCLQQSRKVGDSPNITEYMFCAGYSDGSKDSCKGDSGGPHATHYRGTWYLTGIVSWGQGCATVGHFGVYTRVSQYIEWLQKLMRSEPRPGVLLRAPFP

B1: membTF: recombinant membrane-bound tissue factor (protein, UniProt P13726 1-295, looked up)
chain: METPAWPRVPRPETAVARTLLLGWVFAQVAGASGTTNTVAAYNLTWKSTNFKTILEWEPKPVNQVYTVQISTKSGDWKSKCFYTTDTECDLTDEIVKDVKQTYLARVFSYPAGNVESTGSAGEPLYENSPEFTPYLETNLGQPTIQSFEQVGTKVNVTVEDERTLVRRNNTFLSLRDVFGKDLIYTLYYWKSSSSGKKTAKTNTNEFLIDVDKGENYCFSVQAVIPSRTVNRKSTDSPVECMGQEKGEFREIFYIIGAVVFVVIILVIILAISLHKCRKAGVGQSWKENSPLNVS
modifications: full-length
- Kd (VIIa): 10 pM
- Km (X activation by VIIa): 0.059 ± 0.00088 µM
- X activation kcat (X activation by VIIa): 3.5 ± 0.38 s⁻¹
- VII autoactivation k2D (VII): 3.4 (±0.15) × 10^7 m^2 mol^−1 s^−1
